Source: article doi:10.1101/2021.12.30.474520, “Substrate Specificity for Human Histidine Methyltransferase SETD3” (bioRxiv, 2021)
Ends that are not written are not given here.

Columns and labels:
[1] = biological target: T1, human SETD3 (residues 1-497) (human, UniProt Q86TU7 1-497); experiment: ITC; peptide (0.5-1 mM) titrated into SETD3 (0.05 mM) pre-incubated with SAH (1:10); 25 °C; 20 mM Tris-HCl pH 8.0, 150 mM NaCl; one set of binding sites model; conditions: both partners purified
T1 construct: The methods describe one recombinant human SETD3 with an N-terminal His6-tag without giving limits; Whether that protocol and tag apply to the 1-497 construct used for ITC and crystals is surmised; In ITC and in the crystals SETD3 was pre-incubated with SAH or sinefungin (SFG) at 1:10; also called SETD3_(1-497); histidine methyltransferase SETD3
T1 sequence (looked up): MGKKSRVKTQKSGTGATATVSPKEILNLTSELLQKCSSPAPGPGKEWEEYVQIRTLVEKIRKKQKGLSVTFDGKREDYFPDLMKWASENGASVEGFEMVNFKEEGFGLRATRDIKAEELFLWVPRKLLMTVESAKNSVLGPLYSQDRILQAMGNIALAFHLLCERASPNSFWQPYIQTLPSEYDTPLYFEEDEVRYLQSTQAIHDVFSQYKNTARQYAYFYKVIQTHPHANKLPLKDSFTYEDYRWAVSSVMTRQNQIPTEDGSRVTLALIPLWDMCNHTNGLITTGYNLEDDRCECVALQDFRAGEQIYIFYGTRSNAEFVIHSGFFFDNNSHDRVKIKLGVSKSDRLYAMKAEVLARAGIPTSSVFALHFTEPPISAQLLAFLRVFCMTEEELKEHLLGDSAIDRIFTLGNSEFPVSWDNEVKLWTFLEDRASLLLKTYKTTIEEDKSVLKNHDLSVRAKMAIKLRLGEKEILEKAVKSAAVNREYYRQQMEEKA

[2] = biological target: T1, human SETD3 (residues 1-497); experiment: ITC; peptide (0.5-1 mM) titrated into SETD3 (0.05 mM) pre-incubated with sinefungin (SFG) (1:10); 25 °C; 20 mM Tris-HCl pH 8.0, 150 mM NaCl; one set of binding sites model; conditions: both partners purified

Kd [1]: 700 nM
Kd [2]: 1000 nM
B1: β-actin peptide, residues 66-81, with His73 (βA-His73) (peptide, UniProt P60709 66-81, looked up)
peptide: TLKYPIEHGIVTNWDD-NH2
notes: β-actin, human, 16-mer, residues 66-81; Made on Rink amide resin, so a C-terminal amide is surmised; also called wild type βA-His73; wild type β-actin peptide; source: synthetic peptide (microwave-assisted SPPS on Rink amide resin, RP-HPLC)
